The text below walks through data of patent US7618800B2, “Glycerol kinase, which has high resistance against preservative” (Toyo Boseki Kabushiki Kaisha, priority 2002, dated 2009).

The nature of data set [1]: Glycerol kinase activity by rate assay (relative activity of purified enzyme). The note with it: protein approximated from absorbance at 280 nm. Type of data set: biochemical. As to the method:
(§1) Generally, the activity was assayed by the method. Using glycerol as substrate, the enzyme activity was assayed on the basis of the amount of produced glycerol-3-phosphoric acid. By adding 0.1 M HEPES buffer of pH 7.9 to 0.2 ml of 0.5% 4-aminoantipyrine solution, 0.2 ml of 1.5% phenol solution, 200 U of the oxidase of glycerol-3-phosphoric acid, 80 U of peroxidase, and 48.4 mg of ATP, a total volume is adjusted to be 21 ml. The resulting solution was used as the stock solution for the following assays. To 3 ml of the assay stock solution, 50 μl of 0.3 M glycerol solution and 100 μl of the enzyme solution were added and mixed. Each reaction was assayed by recording the absorbance at 500 nm for 3 minutes with a spectrophotometer which is controlled to be 37° C., and calculating the change of the absorbance per minute on the initial linear part (triangle OD test). A blank test was conducted by adding 100 μl of a diluted enzyme solution (20 mM potassium phosphate buffer of pH 7.5 containing 0.2% bovine serum albumin) instead of the enzyme solution and carrying out the same procedures as described above and calculating the change of the absorbance per minute (triangle OD blank).
Based on the change of the absorbance as obtained, the enzyme activity of glycerol kinase was calculated according to the following formula. […]

Data set [2] can be described thus: Km value for glycerol (Lineweaver-Burk, assay method 1). Type of data set: biochemical. The settings on record: glycerol concentration changed. Here is the method: as §1, with “blank). […]” for “blank).”
Data set [3] is described as follows: Km value for ATP (Lineweaver-Burk, assay method 1). Type of data set: biochemical. The settings on record: ATP concentration changed. Here is the method: as §1, with “blank). […]” for “blank).”
Data set [4] is described as follows: Optimal pH (assay method 3). Type of data set: biochemical. The note with it: 50 mM buffers, 37° C. Here is the method: Glycerol kinase activity was assayed after reaction in each 50 mM buffer at 37° C. for 5 minutes. […] Black circles express the reaction in the presence of 50 mM MES buffer; black squares express the reaction in the presence of 50 mM HEPES buffer; black diamonds express the reaction in the presence of TAPS buffer; black triangles express the reaction in the presence of 50 mM CHES buffer; and white circles express the reaction in the presence of 50 mM glycine-NaOH.
After dividing 3 ml of an active reaction solution (50 mM buffer at each pH, containing 4 mM ATP and 2 mM magnesium chloride) in a test tube, 0.1 ml of a glycerol kinase solution after dilution to an appropriate concentration (about 1 U/ml of the activity measured according to the assay method 1) was added thereto and mixed thoroughly. […] After adding 0.15 ml of the reaction-terminated solution to 3 ml of a chromogenic solution (0.2 M HEPES buffer of pH 7.9 containing 0.01% 4-aminoantipyrin, 0.02% phenol, 5 U/ml peroxidase and 16 U/ml glycerol-3-phosphoric acid oxidase) and mixing, reaction at 37° C. for about 5 minutes was carried out to measure the absorbance at 500 nm. Then, the absorbance of 1 mM L-glycerol-3-phosphoric acid solution was simultaneously measured. The amount of L-glycerol-3-phosphoric acid produced via each enzyme reaction was determined. […]

Data set [5] can be described thus: Optimal temperature (assay method 2). Type of data set: biochemical. The note with it: reaction in 20 mM HEPES buffer, pH 7.9 for 5 minutes. Here is the method: Glycerol kinase activity was assayed after reaction in […], pH 7.9 at each temperature for 5 minutes.
After dividing 3 ml of an active reaction solution (20 mM HEPES buffer of pH 7.9 containing 4 mM ATP and 2 mM magnesium chloride) in a test tube, 0.1 ml of a glycerol kinase solution after dilution to an appropriate concentration (about 1 U/ml of the activity measured according to the assay method 1) was added thereto and mixed thoroughly. Then, the reaction mixture is preliminarily heated at each temperature for about 3 minutes. Then, 0.05 ml of aqueous 0.3 M glycerol solution was added and mixed for initiating the reaction. After the reaction for exact 10 minutes, 1 ml of 1N hydrochloric acid was added to terminate the enzyme reaction. After adding 0.15 ml of the reaction-terminated solution to 3 ml of a chromogenic solution (0.2 M HEPES buffer of pH 7.9 containing 0.01% 4-aminoantipyrin, 0.02% phenol, 5 U/ml peroxidase and 16 U/ml glycerol-3-phosphoric acid oxidase) and mixing, reaction at 37° C. for about 5 minutes was carried out to measure the absorbance at 500 nm. Then, the absorbance of 1 mM L-glycerol-3-phosphoric acid solution was simultaneously measured. The amount of L-glycerol-3-phosphoric acid produced via each of the reactions was determined. […]

Data set [6] is described as follows: pH stability of glycerol kinase. Type of data set: physicochemical. The settings on record: 20 hr treatment at 25° C. As to the method:
Glycerol kinase was dissolved in each of 50 mM buffers to become about 10 U/ml and stored at 25° C. for 20 hours. Subsequently, glycerol kinase activity was assayed to determine remaining activity. […] Black circles express the reaction in the presence of acetate buffer; black squares express the reaction in the presence of potassium phosphate buffer; black diamonds express the reaction in the presence of CHES buffer; black triangles express the reaction in the presence of CAPS buffer.

Data set [7] can be described thus: Thermal stability of glycerol kinase. The settings on record: 50 mM potassium phosphate buffer, pH 7.5, 15-min treatment. Format: physicochemical. As to the method: Glycerol kinase was dissolved in 50 mM potassium phosphate buffer of pH 7.5 to become about 10 U/ml and stored at each temperature for 15 minutes. Subsequently, glycerol kinase activity was assayed to determine the remaining activity.
After dissolving the glycerol kinase in 50 mM potassium phosphate buffer of pH 7.5 to become about 10 U/ml, glycerol kinases were stored at each temperature for 15 minutes to assay the remaining activity. […] Black circle expresses glycerol kinase of the present invention; black squares expresses glycerol kinase from Thermus fiavus.

Data set [8] is described as follows: Resistance against preservative (remaining activity ratio). Type of data set: physicochemical. Here is the method: After dissolving glycerol kinase from each origin in 50 mM potassium phosphate buffer of pH 7.5 to become about 5 U/ml, each preservative was added at a concentration shown in the figure and stored at 4° C. for one week, to assay the remaining activity. […] The remaining activity ratio of the enzyme from each origin is shown in the order from the top as the activity when 0.3 mM ProClin® 300 is present, […] ProClin® 150 is present, 500 mg/L IZU is present, 100 mg/L MIT is present and no preservative is added.
After dissolving glycerol kinase from each origin in 50 mM potassium phosphate buffer of pH 7.5 to become about 5 U/ml, each preservative was added at a concentration shown in the figure and stored at 25° C. for one week to assay the remaining activity. […] The remaining activity ratio of the enzyme from each origin is shown in the order from the top as the activity when 0.3 mM ProClin® 300 is present, 0.8 mM ProClin® 150 is present, 500 mg/L IZU is present, 100 mg/L MIT is present and no preservative is added.
The resistance against preservative in the present invention can be evaluated on the basis of the remaining activity ratio when about 5 U/mL glycerol kinase coexists with preservative at 25° C. for one week in 50 mM potassium phosphate buffer of pH 7.5.
The Km values of glycerol and ATP were calculated according to the Lineweaver-Burk equation according to the method described in the section “Method for assaying glycerol kinase activity” <method 1>, wherein the concentration of glycerol or ATP was changed to assay the glycerol kinase activity at each substrate concentration. • (8) Relative activity: About 41.2 U/mg • (9) Resistance against the presence of preservative: Remaining activity ratio in coexistence with 100 mg/L MIT in 50 mM potassium phosphate buffer of pH 7.5 is shown in FIGS. 5 and 6. The activity was assayed according to the method 1.

B1: glycerol kinase of the present invention: Recombinant glycerol kinase (SEQ ID NO:1) of Cellulomonas sp. JCM2471 gene, expressed in E. coli KM1 (pCGK12) and purified (protein)
chain: MADYVLAIDQGTTSSRAIVFNHSGEIYSTGQLEHDQIFPRAGWVEHNPEQIWNNVREVVGLALTRGNLTHEDIAAVGITNQRETAVVWDKTTGKPVYNAIVWQDTRTQKIVDELGGDEGAEKYKSIVGLPLATYFSGPKIKWILDNVEGAREKAEKGDLLFGNTDTWVLWNMTGGTEGGVHVTDVTNASRTMLMDLDTLSWREDIAADMGIPLSMLPDIRSSSEVYGHGRPRGLVPGVPIAGILGDQQAATFGQACFEVGQAKNTYGTGNFLLLNTGTEKVMSKNGLLTTVCYKIGDAPAVYALEGSIAVTGSLVQWLRDNLGMFEDAPDVEWLAGKVQDNGGAYFVPAFSGLFAPYWRPDARGALVGLTRYVNRNHIARAALEATAFQSREVVDAMNADSGVDLTELRVDGGMVANELLMQFQADQLGVDVVRPKVAETTALGAAYAAGIAVGFWKGEQDVIDNWAEDKRWSPSMESGERERLYRNWKKAVTKTMEWVDEDVEQ
modifications: Cellulomonas sp. JCM2471
notes: JCM2471 gene, expressed in E. coli KM1 (pCGK12) and purified
As for B1, the Relative activity result in data set [1] is “about 41.2 U/mg protein”. The values for the Km in data set [2] and in data set [3] were about 6.9 µM and about 111 µM, respectively. For the same molecule, in data set [4], the “Optimal pH” value is on record as “about 10.0”. Moreover, in data set [5], the Optimal temperature entry is “about 50 °C”. Besides, the “pH stability (pH range with remaining activity of 90% or more)” value in data set [6] was 6.0-10.0. Further, in data set [7], the “Thermal stability (temperature range with remaining activity of 90% or more)” value is at most 45 °C. Besides, the Remaining activity ratio in data set [8] (100 mg/L MIT, 50 mM potassium phosphate buffer pH 7.5, storage at 4° C. for one week) is about 100%; in data set [8] (100 mg/L MIT, 50 mM potassium phosphate buffer pH 7.5, storage at 25° C. for one week), “about 92%”; in data set [8] (storage at 25° C. for one week in coexistence with preservatives (sentence names none)) it was at least 90%. The “Stability in the coexistence of preservatives (in words)” value in data set [8] (compared with glycerol kinase derived from Thermus flavus) is “high stability in the coexistence of preservatives”.
